Laboratory results reported in paper PMC4949953.

Target: computationally redesigned, water-soluble variant of the human μ-opioid receptor (MOR) (human) (UniProt P35372)
Assay: MoS2 field effect transistor biosensor

Kd: 87 nM
Substance: [D-Ala^2, N-MePhe^4, Gly-ol]-enkephalin (peptide)
